IntAct's records for PubMed 16977320

B1: Ephrin type-A receptor 2 (Mus musculus), Q03145 (parent)
chain: MELRAVGFCLALLWGCALAAAAAQGKEVVLLDFAAMKGELGWLTHPYGKGWDLMQNIMDDMPIYMYSVCNVVSGDQDNWLRTNWVYREEAERIFIELKFTVRDCNSFPGGASSCKETFNLYYAESDVDYGTNFQKRQFTKIDTIAPDEITVSSDFEARNVKLNVEERMVGPLTRKGFYLAFQDIGACVALLSVRVYYKKCPEMLQSLARFPETIAVAVSDTQPLATVAGTCVDHAVVPYGGEGPLMHCTVDGEWLVPIGQCLCQEGYEKVEDACRACSPGFFKSEASESPCLECPEHTLPSTEGATSCQCEEGYFRAPEDPLSMSCTRPPSAPNYLTAIGMGAKVELRWTAPKDTGGRQDIVYSVTCEQCWPESGECGPCEASVRYSEPPHALTRTSVTVSDLEPHMNYTFAVEARNGVSGLVTSRSFRTASVSINQTEPPKVRLEDRSTTSLSVTWSIPVSQQSRVWKYEVTYRKKGDANSYNVRRTEGFSVTLDDLAPDTTYLVQVQALTQEGQGAGSKVHEFQTLSTEGSANMAVIGGVAVGVVLLLVLAGVGLFIHRRRRNLRARQSSEDVRFSKSEQLKPLKTYVDPHTYEDPNQAVLKFTTEIHPSCVARQKVIGAGEFGEVYKGTLKASSGKKEIPVAIKTLKAGYTEKQRVDFLSEASIMGQFSHHNIIRLEGVVSKYKPMMIITEYMENGALDKFLREKDGEFSVLQLVGMLRGIASGMKYLANMNYVHRDLAARNILVNSNLVCKVSDFGLSRVLEDDPEATYTTSGGKIPIRWTAPEAISYRKFTSASDVWSYGIVMWEVMTYGERPYWELSNHEVMKAINDGFRLPTPMDCPSAIYQLMMQCWQQERSRRPKFADIVSILDKLIRAPDSLKTLADFDPRVSIRLPSTSGSEGVPFRTVSEWLESIKMQQYTEHFMVAGYTAIEKVVQMSNEDIKRIGVRLPGHQKRIAYSLLGLKDQVNTVGIPI

Variants of: B1
Conditions: with epha4_mouse Epha4, Q03137
Sequence of epha4_mouse Epha4, Q03137 (Q03137 whole entry): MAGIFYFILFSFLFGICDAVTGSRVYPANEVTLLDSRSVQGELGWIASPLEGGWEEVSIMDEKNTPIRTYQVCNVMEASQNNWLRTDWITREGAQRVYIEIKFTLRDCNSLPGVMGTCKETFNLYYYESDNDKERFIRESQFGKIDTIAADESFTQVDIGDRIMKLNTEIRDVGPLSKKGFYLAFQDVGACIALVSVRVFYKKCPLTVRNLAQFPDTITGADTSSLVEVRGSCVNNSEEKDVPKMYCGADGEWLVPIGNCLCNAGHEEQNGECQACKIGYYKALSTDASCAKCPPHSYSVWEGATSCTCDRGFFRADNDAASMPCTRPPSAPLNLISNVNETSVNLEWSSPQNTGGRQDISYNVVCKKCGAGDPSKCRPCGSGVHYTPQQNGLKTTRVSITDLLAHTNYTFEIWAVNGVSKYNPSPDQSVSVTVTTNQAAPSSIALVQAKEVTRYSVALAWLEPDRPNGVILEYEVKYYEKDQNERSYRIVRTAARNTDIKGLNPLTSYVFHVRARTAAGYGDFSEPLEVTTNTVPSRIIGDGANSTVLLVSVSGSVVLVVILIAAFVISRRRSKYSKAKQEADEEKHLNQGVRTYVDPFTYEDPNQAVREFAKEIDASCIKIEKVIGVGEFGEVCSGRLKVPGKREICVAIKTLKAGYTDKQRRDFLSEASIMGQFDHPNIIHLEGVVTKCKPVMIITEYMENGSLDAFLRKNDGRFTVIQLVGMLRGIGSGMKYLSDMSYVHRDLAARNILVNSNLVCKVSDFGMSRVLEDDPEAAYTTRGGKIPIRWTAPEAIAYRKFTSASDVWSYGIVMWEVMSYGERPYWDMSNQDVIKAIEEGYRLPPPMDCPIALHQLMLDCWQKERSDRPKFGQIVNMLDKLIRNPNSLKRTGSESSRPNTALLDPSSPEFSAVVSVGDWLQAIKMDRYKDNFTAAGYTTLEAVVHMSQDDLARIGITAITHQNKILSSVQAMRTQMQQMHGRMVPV
In the case of Y589F, the “effect of a mutation on the interaction” value is reported as “disrupting interaction”.

Variants of: B1
Conditions: with epha4_mouse Epha4, Q03137
Remark: another data set of the same source
Y595F was tested, and the “effect of a mutation on the interaction” value was “disrupting interaction”.
